According to paper PMC10923862:

Assays:
[1] = target: HexaPro spike without foldon (SARS-CoV-2 (Wuhan-Hu-1)) (UniProt P0DTC2); assay: SEC
[2] = target: HexaPro, soluble SARS-CoV-2 spike ectodomain carrying a foldon domain (SARS-CoV-2 (Wuhan-Hu-1) | not stated) (UniProt P0DTC2); assay: SEC-MALS
[3] = target: HexaPro, soluble SARS-CoV-2 spike ectodomain carrying a foldon domain (SARS-CoV-2 (Wuhan-Hu-1) | not stated) (UniProt P0DTC2); assay: SEC
[4] = target: S-3P, soluble SARS-CoV-2 spike ectodomain with C-terminal foldon trimerization domain (SARS-CoV-2 (Wuhan-Hu-1) | not stated) (UniProt P0DTC2); assay: SEC-MALS
[5] = target: S-3P, soluble SARS-CoV-2 spike ectodomain with C-terminal foldon trimerization domain (SARS-CoV-2 (Wuhan-Hu-1) | not stated) (UniProt P0DTC2); assay: SEC
[6] = target: S-locked, soluble SARS-CoV-2 spike ectodomain with the disulfide 413C-987C that locks the RBD in the closed conformation, without heterologous trimerization domain (SARS-CoV-2 (Wuhan-Hu-1)) (UniProt P0DTC2); assay: SEC-MALS

HexaPro spike without foldon (from UniProt P0DTC2 14-1208)
stoichiometry N [1]: 3

HexaPro, soluble SARS-CoV-2 spike ectodomain carrying a foldon domain (from UniProt P0DTC2 14-1208)
stoichiometry N [2]: 3 | stoichiometry N [3]: 3

S-3P, soluble SARS-CoV-2 spike ectodomain with C-terminal foldon trimerization domain (from UniProt P0DTC2 14-1208)
stoichiometry N [4]: 3 | stoichiometry N [5]: 3

S-locked, soluble SARS-CoV-2 spike ectodomain with the disulfide 413C-987C that locks the RBD in the closed conformation, without heterologous trimerization domain (from UniProt P0DTC2 14-1208)
stoichiometry N [6]: 3
